This passage reports EC50 results from patent US20070161078A1.

What is called EC50 is the concentration needed to bring the measured effect to its halfway point.

Assay [1] has as its target MBP.NS1 H5N1B (ESEV) (influenza A H5N1) (UniProt Q6DP28). As to the kind of experiment: G assay titration.
Assay [2] shares this target. As to the kind of experiment: direct binding assay titration.

Turning to “INADL d8 (from UniProt Q8NI35 1431-1525)”, the EC50 was determined as 1.8 µg/mL in assay [1] and 6.1 µg/mL in assay [2].
Substance “MAST2 d1 (from UniProt Q6P0Q8 1098-1197)” came in with a half-maximal effective concentration (EC50) in assay [1] of 0.9 µg/mL.
For “NeDLG d1,2 (from UniProt Q92796 124-316)”, the EC50 in assay [1] was 0.2 µg/mL; in assay [2] it was 0.8 µg/mL.
On to Magi3 d1 (from UniProt Q5TCQ9 18-106), for which the 50% effective concentration (EC50) in assay [1] came out at 0.9 µg/mL; in assay [2], 5 µg/mL.
